The values below come from US7708999B2, “Remedies for arthritis” (Kyowa Hakko Kirin Co., Ltd., priority 2001, dated 2010).

For test [1], the target named is T1, FGF-8 (Homo sapiens, UniProt P55075).
T1 construct: purchased R & D
T1 sequence (P55075 23-215 isoform P55075-3 limits assumed): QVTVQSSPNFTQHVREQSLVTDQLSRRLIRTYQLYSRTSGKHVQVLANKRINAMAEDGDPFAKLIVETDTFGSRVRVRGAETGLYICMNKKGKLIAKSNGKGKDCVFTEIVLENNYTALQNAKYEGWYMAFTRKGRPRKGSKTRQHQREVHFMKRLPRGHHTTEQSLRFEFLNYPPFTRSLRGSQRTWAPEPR
Description: FGF-8 binding activity by BIAcore 2000, immobilized FGF-8. The following applies: antibody 50 μg/mL; FGF-8 immobilized 4498 RU. On the procedure: In order to examine the FGF-8 binding activity of the various anti-FGF-8 neutralizing CDR-grafted antibodies obtained in 4. of Reference Example 2 in more detail, the FGF-8 binding activity of the various anti-FGF-8 neutralizing CDR-grafted antibodies was measured and compared in the following manner using BIAcore2000 (manufactured by BIACORE). The YB2/0 cell-derived anti-FGF-8 neutralizing chimeric antibody KM3334 obtained in 3.(2) of Reference Example 1 was used as a positive control.
HBS-EP (manufactured by BIACORE) was used hereinafter as a sample diluent and a buffer during measurement. First, Sensor Chip CM5 (manufactured by BIACORE) was installed, and FGF-8 (manufactured by R & D) dissolved in 31.25 μg/mL of 10 mmol/L acetate buffer solution (pH 4.0) was immobilized on the surface of the sensor chip by the amine coupling method. The immobilization amount measured by using a resonance signal (RU) as an index was 4498 RU.
60 μL of each of the antibody solutions was added to an FGF-8 immobilized flow cell at a flow rate of 20 μL/min, and the dissociation reaction was then monitored for 3 minutes. After the dissociation reaction, 20 μL of a 10 mmol/L glycine-hydrochloride solution (pH 1.5) was added to the flow cell twice continuously to regenerate the surface of the chip. This cycle was performed with the antibody solution at various concentrations (from 50 to 0.068 μg/mL) to obtain sensor grams at various concentrations. The sensor grams of the respective antibodies were converted to sensor grams of specific reactions by deducing a sensor gram obtained using chimeric antibody KM871 (Shitara K. et al., Cancer Immunol. Immunother., 36, 373-380, 1993) to GD3 as a negative control. […] Accordingly, the binding activity of the various antibodies was compared in terms of the binding [resonance signal (RU)] in the binding reaction. […] The effect of restoring the binding activity was not observed in the 6 amino acid residues of FR of VH.

Test [2] concerns the target T1, FGF-8. Description: FGF-8 neutralizing activity: FGF-8-dependent growth of mouse breast cancer cell line SC-3. The following applies: SC-3 cells, FGF-8 50 ng/mL, WST-1. Format: cell-based. As for the experimental part:
The FGF-8 neutralizing activity of the purified anti-FGF-8 neutralizing chimeric antibody was evaluated by measured the following FGF-8-dependent growth inhibitory effect of mouse breast cancer cell line SC-3 (Tanaka A. et al., Proc. Natl. Acad. Sci. USA, 89, 8928-8932, 1992) described below. That is, SC-3 cells were suspended at a concentration of 3.0×10^4 cells/mL in DMEM:Ham's F12 (1:1) medium [a mixed medium of DMEM medium and Ham's F12 medium (manufactured by Invitrogen) at a ratio of 1:1] containing activated charcoal-treated FBS at a concentration of 2%. The suspension was inoculated on a 96-well plate in an amount of 150 μL (4.5×10^3 cells)/well. After the culturing in a 5% CO2 incubator at 37° C. for 18 hours, the medium was replaced with 100 μL/well of a test medium. The test medium was produced by dissolving 50 ng/mL of FGF-8 (manufactured by R & D) and the anti-FGF-8 neutralizing chimeric antibody at each dilute concentration in DMEM:Ham's F12 (1:1) medium containing 0.1% BSA. The chimeric antibody KM2760 to human chemokine CCR4 described in WO 01/64754 was used as an antibody of a negative control. After the culturing in a 5% CO2 incubator at 37° C. for 48 hours, the medium was replaced with a freshly prepared test medium, and the culturing was further performed for 48 hours. WST-1 Reagent (manufactured by Roche) was added in an amount of 10 μL/well, and the mixture was culturing in a 5% CO2 incubator at 37° C. for 1 hour while being gently stirred. Then, absorbance (OD450,650) was measured. In FIG. 21, the abscissa represents a concentration of an antibody added, and the ordinate represents relative growth (%) to growth when adding 50 ng/mL of FGF-8 alone. The relative growth (%) to growth when adding 50 ng/mL of FGF-8 alone was calculated by the following formula. Relative growth (%) to growth when adding FGF-8={(Absorbance when adding FGF-8 and antibody−Absorbance when not adding FGF-8 and antibody)/(Absorbance when adding FGF-8 alone−Absorbance when not adding FGF-8 and antibody)}×100

The target in test [3] is T2, compound 1 as a partial peptide of FGF-8 (Homo sapiens, UniProt P55075).
T2 construct: 17; made in house; host or cells: chemical synthesis
T2 sequence (P55075 with tags, fused parts or gaps isoform P55075-3 limits assumed): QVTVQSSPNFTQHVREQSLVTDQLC
Description: FGF-8 binding activity by BIAcore 2000, immobilized biotin-labeled compound 1. The following applies: antibody 16.7 μg/mL; FGF-8 peptide immobilized 35 RU. As for the experimental part:
In order to examine the FGF-8 binding activity of the anti-FGF-8 neutralizing CDR-grafted antibodies obtained in 5. of Reference Example 3, the FGF-8 binding activity of the various anti-FGF-8 neutralizing CDR-grafted antibodies was measured and compared through BIAcore 2000 using compound 1 as a partial peptide of FGF-8 with the C terminal labeled with biotin in the following manner. The anti-FGF-8 neutralizing chimeric antibody KM3034 derived from CHO/DG44 cells obtained in 3. (1) of Reference Example 1 was used as a positive control.
HBS-EP was used as a sample diluent and a buffer during measurement. First, Sensor Chip SA (manufactured by BIACORE) was installed, and 5 μL of compound 1 labeled with biotin which had been adjusted to 0.05 μg/mL was added at a flow rate of 5 μL/min. Then, 5 μL of a 10 mmol/L glycine-hydrochloride solution (pH 1.5) was added twice continuously to wash the tip surface. The immobilization amount of the FGF-8 peptide was 35 RU.
60 μL of each of the antibody solutions was added to an FGF-8 peptide immobilized flow cell at a flow rate of 20 μL/min, and the dissociation reaction was then monitored for 3 minutes. After the dissociation reaction, 20 μL of 10 mmol/L glycine-hydrochloride solution (pH 1.5) was added twice continuously to regenerate the chip surface. This cycle was performed on the antibody solution at various concentrations (from 50 to 1.85 μg/mL) to obtain sensor grams at various concentrations. The sensor grams of the respective antibodies were converted to sensor grams of specific reactions by deduceing a sensor gram obtained using the chimeric antibody KM871 to GD3 as a negative control.

B1: KM3334: anti-FGF-8 neutralizing human chimeric antibody, VH SEQ ID NO. 5, VL SEQ ID NO. 6, human γ1/κ, YB2/0 cell-derived (antibody, listed as Mus musculus, V domains shown)
VH: QVQLQQSGAEVARPGASVKLSCKASGYTFTDYYLNWVKQRSGQGLEWIGEIDPGSDSIYYNENLEGRATLTADKSSSTAYMQLNSLTSEDSAVYFCARYGYSRYDVRFVYWGQGTLVTVST
VL: DVLMTQTPLSLPVSLGDQASISCRSSQSLVHSNGRTYLEWYLQKPGQSPKVLIYKVSNRISGVPDRFSGSGSGTDFTLKISRVEAEDLGVYFCFQGSHVPYTFGGGTKLEIK
On to B1, for which the “binding reaction [resonance signal (RU)]” value with FGF-8 [1] was “the highest binding reaction”.

B2: HV0LV3-3/CHO: CHO/DG44 cell-derived anti-FGF-8 neutralizing CDR-grafted antibody, VH HV.0, VL LV.3-3 (SEQ ID NO. 51) (antibody, V domains shown)
VH: QVQLVQSGAEVKKPGASVKVSCKASGYTFTDYYLNWVRQAPGQGLEWMGEIDPGSDSIYYNENLEGRVTITADTSTSTAYMELSSLRSEDTAVYYCARYGYSRYDVRFVYWGQGTLVTVSS
VL: DIVMTQSPLSLPVSLGEPASISCRSSQSLVHSNGRTYLEWYLQKPGQSPQVLIYKVSNRISGVPDRFSGSGSGTDFTLKISRVEAEDVGVYYCFQGSHVPYTFGQGTKVEIK
On to B2, for which the “FGF-8 neutralizing activity (SC-3 cell growth inhibitory activity)” value with FGF-8 [2] is “approximately half that of the chimeric antibody KM3034”. For the same molecule, the “binding reaction [resonance signal (RU)]” value in test [3] was “lower than that of the HV0LV3-1”.

B3: HV0LV4-1/CHO: CHO/DG44 cell-derived anti-FGF-8 neutralizing CDR-grafted antibody, VH HV.0, VL LV.4-1 (SEQ ID NO. 42) (antibody, V domains shown)
VH: QVQLVQSGAEVKKPGASVKVSCKASGYTFTDYYLNWVRQAPGQGLEWMGEIDPGSDSIYYNENLEGRVTITADTSTSTAYMELSSLRSEDTAVYYCARYGYSRYDVRFVYWGQGTLVTVSS
VL: DVVMTQSPLSLPVTPGEPASISCRSSQSLVHSNGRTYLEWYLQKPGQSPKVLIYKVSNRISGVPDRFSGSGSGTDFTLKISRVEAEDVGVYFCFQGSHVPYTFGQGTKVEIK
For the molecule B3, the “FGF-8 neutralizing activity (SC-3 cell growth inhibitory activity)” value with FGF-8 [2] was “slightly lower FGF-8 neutralizing activity than the HV0LV3-1/CHO”. Moreover, the “binding reaction [resonance signal (RU)]” value in test [3] is recorded as “the higher binding reaction”.

B4: HV0LV4-3/CHO: CHO/DG44 cell-derived anti-FGF-8 neutralizing CDR-grafted antibody, VH HV.0, VL LV.4-3 (SEQ ID NO. 50) (antibody, V domains shown)
VH: QVQLVQSGAEVKKPGASVKVSCKASGYTFTDYYLNWVRQAPGQGLEWMGEIDPGSDSIYYNENLEGRVTITADTSTSTAYMELSSLRSEDTAVYYCARYGYSRYDVRFVYWGQGTLVTVSS
VL: DIVMTQSPLSLPVSLGEPASISCRSSQSLVHSNGRTYLEWYLQKPGQSPQVLIYKVSNRISGVPDRFSGSGSGTDFTLKISRVEAEDVGVYFCFQGSHVPYTFGQGTKVEIK
As to B4, the “FGF-8 neutralizing activity (SC-3 cell growth inhibitory activity)” value in the test with FGF-8 [2] is “approximately half that of the chimeric antibody KM3034”. Besides, the “binding reaction [resonance signal (RU)]” value in test [3] is “the higher binding reaction than that of the HV0LV3-1/CHO and similar to that of the HV0LV6/CHO”.

B5: HV0LV3-1/CHO: CHO/DG44 cell-derived anti-FGF-8 neutralizing CDR-grafted antibody, VH HV.0, VL LV.3-1 (SEQ ID NO. 44) (antibody, V domains shown)
VH: QVQLVQSGAEVKKPGASVKVSCKASGYTFTDYYLNWVRQAPGQGLEWMGEIDPGSDSIYYNENLEGRVTITADTSTSTAYMELSSLRSEDTAVYYCARYGYSRYDVRFVYWGQGTLVTVSS
VL: DVVMTQSPLSLPVTPGEPASISCRSSQSLVHSNGRTYLEWYLQKPGQSPQVLIYKVSNRISGVPDRFSGSGSGTDFTLKISRVEAEDVGVYFCFQGSHVPYTFGQGTKVEIK
Consider B5, for which, in the test with FGF-8 [2], the “FGF-8 neutralizing activity (SC-3 cell growth inhibitory activity)” value is recorded as “the next high FGF-8 neutralizing activity”. For the same molecule, the “binding reaction [resonance signal (RU)]” value in test [3] is “the higher binding reaction”.

B6: HV0LV6: YB2/0 cell-derived anti-FGF-8 neutralizing CDR-grafted antibody, VH HV.0 (SEQ ID NO. 18), VL LV.6 (SEQ ID NO. 21) (antibody, V domains shown)
VH: QVQLVQSGAEVKKPGASVKVSCKASGYTFTDYYLNWVRQAPGQGLEWMGEIDPGSDSIYYNENLEGRVTITADTSTSTAYMELSSLRSEDTAVYYCARYGYSRYDVRFVYWGQGTLVTVSS
VL: DVVMTQSPLSLPVSLGEPASISCRSSQSLVHSNGRTYLEWYLQKPGQSPKVLIYKVSNRISGVPDRFSGSGSGTDFTLKISRVEAEDVGVYFCFQGSHVPYTFGQGTKVEIK
modifications: HV.0, a designed amino acid sequence of VH of an anti-FGF-8 CDR-grafted neutralizing antibody; LV.6, a designed amino acid sequence of VL of an anti-FGF-8 CDR-grafted neutralizing antibody
In the case of B6, the “binding reaction [resonance signal (RU)]” value with FGF-8 [1] is reported as “the same high binding reaction as KM3334”.

B7: HV0LV2-1/CHO: CHO/DG44 cell-derived anti-FGF-8 neutralizing CDR-grafted antibody, VH HV.0, VL LV.2-1 (SEQ ID NO. 46) (antibody, V domains shown)
VH: QVQLVQSGAEVKKPGASVKVSCKASGYTFTDYYLNWVRQAPGQGLEWMGEIDPGSDSIYYNENLEGRVTITADTSTSTAYMELSSLRSEDTAVYYCARYGYSRYDVRFVYWGQGTLVTVSS
VL: DIVMTQSPLSLPVTPGEPASISCRSSQSLVHSNGRTYLEWYLQKPGQSPQVLIYKVSNRISGVPDRFSGSGSGTDFTLKISRVEAEDVGVYFCFQGSHVPYTFGQGTKVEIK
Take B7: the “FGF-8 neutralizing activity (SC-3 cell growth inhibitory activity)” value with FGF-8 [2] is reported as “the lowest neutralizing activity”. The “binding reaction [resonance signal (RU)]” value in test [3] is recorded as “the higher binding reaction”.
